Consider two molecules from patent US8877476B2, “Soluble and stable human 5-lipoxygenase” (Board of Supervisors of Louisiana State University and …, priority 2010, dated 2014).

Usually half-life stands for the time in which the quantity being followed falls by half.

Numbering of substitutions follows the chain as printed. Numbers in names are those of the source.

A short description of data set [1]: Enzyme half-life at 37° C. by monitoring enzyme activity (ΔA238) over 24 hrs. The data set is classed as biochemical.
A short description of data set [2]: Concentration to which the protein can be concentrated. The data set is classed as physicochemical.
Data set [3] can be described thus: Product assays (HPLC of arachidonic acid oxygenation products). It counts as biochemical. On the procedure: Incubations were conducted in 0.5 ml 0.1 M Tris pH 7.5 containing 150 mM NaCl and 1 mM CaCl2 with 1-20 μg/ml 5-LOX enzyme. The reaction was initiated by addition of arachidonic acid (10-100 μM) added in 1-5 μl ethanol and monitored by UV spectroscopy until completion of reaction (5-10 min). Products were extracted by adjusting the solution to ˜pH 4 by addition of 50 μl 1 M KH2PO4 plus 5 μl 1N HCl and vigorous mixing with two volumes of dichloromethane. After a brief centrifugation to clear the phases, the lower organic layer was collected, washed twice with 0.5 ml water, taken to dryness under a stream of nitrogen, and then dissolved in a small volume of methanol for storage at −20° C. prior to HPLC. Reversed-phase HPLC was carried out using Agilent 1100 series equipment with a Waters C18 Symmetry column (25×0.46 cm), a solvent of acetonitrile/water/glacial acetic acid (60:40:0.01, v/v/v) or methanol/water/glacial acetic acid (80:20:0.01, v/v/v), a flow rate of 1 ml/min, with UV monitoring at 205 nm, 220 nm, 235 nm and 270 nm. The chirality of the product was confirmed as 5S: Mobile phase hexane/methanol 100:2; 1 ml/min; Chiralpak AD column (4.6×250 mm). The HETEs were made into the methyl esters before chiral analysis using ethereal diazomethane.

A short description of data set [4]: Melting curves (thermal denaturation, SYPRO Orange fluorescence). The data set is classed as physicochemical. To be noted: fluorescence vs temperature, four independent experiments in triplicate. On the procedure: Melting temperature assays were performed according to the protocol described by Ericsson et al. (31) Protein was diluted to 1 μM in a final volume of 150 μl 5×SYPRO® Orange protein stain (Invitrogen, Carlsbad, Calif.). Samples were aliquoted in triplicate volumes of 40 μl in a 96-well reaction plate. The plate was subjected to a linear thermal shift from 5 to 94° C. in one degree increments in a 7500 Fast Real-Time PCR System (Applied Biosystems, Branchburg, N.J.). The SYBR Green cutoff filter was used for fluorescence detection of denaturing protein-SYPRO® Orange binding. The resulting data were exported to Sigma Plot 9, and the sigmoidal part of the curve was averaged for each triplicate. The averaged curves were subsequently fit to a four parameter sigmoidal equation. The Tm values reported are the results of four independent experiments, each in triplicate, with multiple protein preparations.

B1: Sol-5-LOX: more soluble form of human 5-LOX, SEQ ID NO: 2 (W13E, F14H, Δ40-44GS, W75G, L76S, C240A, C561A) (protein)
chain: MGSSHHHHHHSSGLVPRGSHMPSYTVTVATGSQEHAGTDDYIYLSLVGSAGCSEKHLLDKGSFERGAVDSYDVTVDEELGEIQLVRIEKRKYGSNDDWYLKYITLKTPHGDYIEFPCYRWITGDVEVVLRDGRAKLARDDQIHILKQHRRKELETRQKQYRWMEWNPGFPLSIDAKCHKDLPRDIQFDSEKGVDFVLNYSKAMENLFINRFMHMFQSSWNDFADFEKIFVKISNTISERVMNHWQEDLMFGYQFLNGANPVLIRRCTELPEKLPVTTEMVECSLERQLSLEQEVQQGNIFIVDFELLDGIDANKTDPCTLQFLAAPICLLYKNLANKIVPIAIQLNQIPGDENPIFLPSDAKYDWLLAKIWVRSSDFHVHQTITHLLRTHLVSEVFGIAMYRQLPAVHPIFKLLVAHVRFTIAINTKAREQLICECGLFDKANATGGGGHVQMVQRAMKDLTYASLCFPEAIKARGMESKEDIPYYFYRDDGLLVWEAIRTFTAEVVDIYYEGDQVVEEDPELQDFVNDVYVYGMRGRKSSGFPKSVKSREQLSEYLTVVIFTASAQHAAVNFGQYDWASWIPNAPPTMRAPPPTAKGVVTIEQIVDTLPDRGRSCWHLGAVWALSQFQENELFLGMYPEEHFIEKPVKEAMARFRKNLEAIVSVIAERNKKKQLPYYYLSPDRIPNSVAI
modifications: Δ40-44 replaced by GS; Sol-5-LOX
As for B1, the “half-life at 37° C.” value in data set [1] is around 7 h. The “can be concentrated to” value in data set [2] came to 2 mg/mL. Further, the “products formed from arachidonic acid” value in data set [3] (HPLC chromatogram, FIG. 6D / FIG. 8) was “produces both the intermediate 5S-HPETE and the product leukotriene A4”. Moreover, in data set [4], the “Tm (with s.d.)” value is 56.6(±0.4) ° C.

B2: S663D-Stable-5-LOX: Stable-5-LOX with Serine 663 replaced with Aspartic acid, SEQ ID NO: 4, mimics phosphorylated state (protein)
chain: B1 chain with K671E, K672N, K673L, S681D
modifications: S663D-Stable-5-LOX
With B2, in data set [3] (Serine 663 replaced with Aspartic acid, method not described), the “change of product specificity by the S663D amino acid change” value was “converted the enzyme from a 5-LOX to a 15-LOX”.
